In IntAct's records for PubMed 17889654:

B1: Transcriptional coactivator yorkie (Drosophila melanogaster (Fruit fly)), Q45VV3 (parent)
chain: MLTTMSASSNTNSLIEKEIDDEDMLSPIKSNNLVVRVNQDTDDNLQALFDSVLNPGDAKRPLQLPLRMRKLPNSFFTPPAPSHSRANSADSTYDAGSQSSINIGNKASIVQQPDGQSPIAAIPQLQIQPSPQHSRLAIHHSRARSSPASLQQNYNVRARSDAAAANNPNANPSSQQQPAGPTFPENSAQEFPSGAPASSAIDLDAMNTCMSQDIPMSMQTVHKKQRSYDVISPIQLNRQLGALPPGWEQAKTNDGQIYYLNHTTKSTQWEDPRIQYRQQQQILMAERIKQNDVLQTTKQTTTSTIANNLGPLPDGWEQAVTESGDLYFINHIDRTTSWNDPRMQSGLSVLDCPDNLVSSLQIEDNLCSNLFNDAQAIVNPPSSHKPDDLEWYKIN
partner: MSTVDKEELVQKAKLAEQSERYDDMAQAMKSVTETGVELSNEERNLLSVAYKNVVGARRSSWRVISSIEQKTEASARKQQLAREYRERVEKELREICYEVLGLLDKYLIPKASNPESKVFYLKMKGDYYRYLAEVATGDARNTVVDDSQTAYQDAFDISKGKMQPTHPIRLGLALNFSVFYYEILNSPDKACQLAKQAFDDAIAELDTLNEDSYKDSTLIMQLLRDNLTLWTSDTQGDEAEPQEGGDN

Variants of: B1
Settings: with 1433z_drome 14-3-3zeta

**Q.** S145A was tested. Which “effect of a mutation on the interaction” value did it give?
**A.** decreasing interaction
